According to patent publication US20190248900A1 (Y BIOLOGICS, published 2019):

What was measured:
Assay in all cases: ELISA
DMP1 = target: T1, DMP1 (Homo sapiens (Human), UniProt Q13316 17-513)
T1 sequence: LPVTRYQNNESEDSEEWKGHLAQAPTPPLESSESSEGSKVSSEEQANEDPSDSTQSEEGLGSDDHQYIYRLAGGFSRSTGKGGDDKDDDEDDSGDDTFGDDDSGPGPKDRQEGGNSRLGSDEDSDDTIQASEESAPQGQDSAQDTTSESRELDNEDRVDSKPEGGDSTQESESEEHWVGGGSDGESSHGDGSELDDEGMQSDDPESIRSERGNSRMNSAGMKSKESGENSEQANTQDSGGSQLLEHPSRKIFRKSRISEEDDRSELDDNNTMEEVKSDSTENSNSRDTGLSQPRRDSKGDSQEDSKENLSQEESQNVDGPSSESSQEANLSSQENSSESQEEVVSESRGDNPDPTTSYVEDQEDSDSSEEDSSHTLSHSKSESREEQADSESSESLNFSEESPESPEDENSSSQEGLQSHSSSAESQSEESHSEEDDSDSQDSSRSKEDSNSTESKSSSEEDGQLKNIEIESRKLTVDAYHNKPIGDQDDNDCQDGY

TNF = TNF (Homo sapiens (Human), UniProt P01375 77-233)
DKK1 = target: T2, DKK1 (Homo sapiens (Human), UniProt O94907 32-266)
T2 sequence: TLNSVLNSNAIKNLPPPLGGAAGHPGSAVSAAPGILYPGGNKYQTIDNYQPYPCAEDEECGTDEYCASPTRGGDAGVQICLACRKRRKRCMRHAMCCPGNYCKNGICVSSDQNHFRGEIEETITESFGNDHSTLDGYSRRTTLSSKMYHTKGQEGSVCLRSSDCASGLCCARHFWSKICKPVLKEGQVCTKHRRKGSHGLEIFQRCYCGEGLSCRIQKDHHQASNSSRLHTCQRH

ULBP1 = target: T3, ULBP1 (Homo sapiens (Human), UniProt Q9BZM6 26-216)
T3 sequence: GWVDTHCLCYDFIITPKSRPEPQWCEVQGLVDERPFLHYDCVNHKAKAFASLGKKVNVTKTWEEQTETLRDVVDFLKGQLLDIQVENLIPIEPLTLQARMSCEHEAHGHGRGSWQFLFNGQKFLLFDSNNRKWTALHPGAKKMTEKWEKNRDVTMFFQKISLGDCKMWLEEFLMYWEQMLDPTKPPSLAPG

PLXDC2 = PLXDC2 (Homo sapiens (Human), UniProt Q6UX71 31-454)
CDCP1 = CDCP1 (Homo sapiens (Human), UniProt Q9H5V8 30-667)
AGR3 = target: T4, AGR3 (Homo sapiens (Human), UniProt Q8TD06 22-166)
T4 sequence: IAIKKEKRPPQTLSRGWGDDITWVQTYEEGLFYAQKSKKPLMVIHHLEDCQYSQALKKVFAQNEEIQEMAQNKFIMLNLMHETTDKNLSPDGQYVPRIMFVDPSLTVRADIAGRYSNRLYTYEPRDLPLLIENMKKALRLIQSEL

TPBG = target: T5, TPBG (Homo sapiens (Human), UniProt Q13641 32-355)
T5 sequence: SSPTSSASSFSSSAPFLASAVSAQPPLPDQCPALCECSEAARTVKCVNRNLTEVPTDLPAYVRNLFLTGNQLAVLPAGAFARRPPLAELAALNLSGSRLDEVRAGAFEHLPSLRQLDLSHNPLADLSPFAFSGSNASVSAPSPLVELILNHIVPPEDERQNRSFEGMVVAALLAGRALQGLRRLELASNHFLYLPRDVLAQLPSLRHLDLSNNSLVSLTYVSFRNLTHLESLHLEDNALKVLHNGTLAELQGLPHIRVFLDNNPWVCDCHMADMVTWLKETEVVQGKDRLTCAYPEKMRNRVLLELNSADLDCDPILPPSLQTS

EPYC = target: T6, EPYC (Homo sapiens (Human), UniProt Q99645 20-322)
T6 sequence: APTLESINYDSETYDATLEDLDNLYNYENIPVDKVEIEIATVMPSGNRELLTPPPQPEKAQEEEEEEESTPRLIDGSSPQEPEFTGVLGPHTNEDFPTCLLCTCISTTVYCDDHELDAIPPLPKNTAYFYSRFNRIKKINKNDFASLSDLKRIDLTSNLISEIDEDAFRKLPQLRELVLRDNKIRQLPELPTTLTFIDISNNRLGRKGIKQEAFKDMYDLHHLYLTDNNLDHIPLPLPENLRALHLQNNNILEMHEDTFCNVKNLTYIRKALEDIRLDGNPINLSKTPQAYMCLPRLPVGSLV

OPTC = target: T7, OPTC (Homo sapiens (Human), UniProt Q9UBM4 20-332)
T7 sequence: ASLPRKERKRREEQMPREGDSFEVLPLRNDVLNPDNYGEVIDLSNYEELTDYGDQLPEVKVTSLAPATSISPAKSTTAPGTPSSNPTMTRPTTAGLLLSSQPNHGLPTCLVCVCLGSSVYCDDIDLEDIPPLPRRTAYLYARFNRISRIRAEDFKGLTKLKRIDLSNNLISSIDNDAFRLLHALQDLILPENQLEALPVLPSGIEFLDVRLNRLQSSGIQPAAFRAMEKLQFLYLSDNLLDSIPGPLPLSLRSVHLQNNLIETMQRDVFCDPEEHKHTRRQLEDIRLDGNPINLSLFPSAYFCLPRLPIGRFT

FZD10 = target: T8, FZD10 (Homo sapiens (Human), UniProt Q9ULW2 21-225)
T8 sequence: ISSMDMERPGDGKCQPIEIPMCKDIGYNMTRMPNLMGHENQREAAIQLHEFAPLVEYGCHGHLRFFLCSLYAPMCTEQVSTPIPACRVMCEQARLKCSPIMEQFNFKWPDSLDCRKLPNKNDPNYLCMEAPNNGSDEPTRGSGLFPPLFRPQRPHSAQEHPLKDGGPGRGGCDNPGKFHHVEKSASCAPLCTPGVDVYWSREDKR

BAMBI = target: T9, BAMBI (Homo sapiens (Human), UniProt Q13145 21-152)
T9 sequence: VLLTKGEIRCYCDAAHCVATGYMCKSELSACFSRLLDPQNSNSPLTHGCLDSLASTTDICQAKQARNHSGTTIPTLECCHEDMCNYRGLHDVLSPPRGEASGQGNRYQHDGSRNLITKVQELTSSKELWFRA

Measured: binding result

Sequence of PLXDC2 (Q6UX71 31-454 limits assumed): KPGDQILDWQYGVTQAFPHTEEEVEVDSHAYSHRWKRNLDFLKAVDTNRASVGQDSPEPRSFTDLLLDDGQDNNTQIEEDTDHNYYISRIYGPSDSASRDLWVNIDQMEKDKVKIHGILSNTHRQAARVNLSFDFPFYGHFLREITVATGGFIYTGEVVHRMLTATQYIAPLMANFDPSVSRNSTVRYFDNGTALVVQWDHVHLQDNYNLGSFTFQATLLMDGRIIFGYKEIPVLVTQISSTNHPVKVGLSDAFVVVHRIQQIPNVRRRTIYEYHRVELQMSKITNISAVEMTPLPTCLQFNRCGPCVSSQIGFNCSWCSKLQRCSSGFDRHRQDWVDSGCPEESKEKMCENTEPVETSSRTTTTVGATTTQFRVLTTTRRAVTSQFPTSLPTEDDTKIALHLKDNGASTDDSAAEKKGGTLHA
Sequence of CDCP1 (Q9H5V8 30-667 limits assumed): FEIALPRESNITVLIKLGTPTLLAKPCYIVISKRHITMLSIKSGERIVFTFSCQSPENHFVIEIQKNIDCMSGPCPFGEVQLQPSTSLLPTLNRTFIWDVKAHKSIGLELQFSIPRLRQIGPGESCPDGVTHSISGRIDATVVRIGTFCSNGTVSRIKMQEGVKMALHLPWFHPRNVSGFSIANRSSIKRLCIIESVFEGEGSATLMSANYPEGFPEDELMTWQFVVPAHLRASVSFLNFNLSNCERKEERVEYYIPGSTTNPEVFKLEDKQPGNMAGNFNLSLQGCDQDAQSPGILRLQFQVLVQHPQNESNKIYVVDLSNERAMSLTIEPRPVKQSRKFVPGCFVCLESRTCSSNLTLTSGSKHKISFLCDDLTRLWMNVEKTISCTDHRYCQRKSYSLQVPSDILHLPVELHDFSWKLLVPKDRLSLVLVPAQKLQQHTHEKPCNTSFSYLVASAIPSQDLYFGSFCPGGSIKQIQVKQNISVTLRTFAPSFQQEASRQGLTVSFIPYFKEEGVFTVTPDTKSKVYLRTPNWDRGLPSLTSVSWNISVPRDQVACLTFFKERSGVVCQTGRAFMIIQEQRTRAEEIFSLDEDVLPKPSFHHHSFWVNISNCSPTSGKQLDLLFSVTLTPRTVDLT
Sequence of TNF (P01375 77-233 limits assumed): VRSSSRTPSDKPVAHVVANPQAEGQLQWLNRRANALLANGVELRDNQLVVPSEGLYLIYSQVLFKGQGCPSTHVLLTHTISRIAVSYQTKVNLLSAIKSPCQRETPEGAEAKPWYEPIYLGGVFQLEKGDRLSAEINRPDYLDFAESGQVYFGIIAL

B1: PD1-41C9 (antibody, V domains shown)
VH: QMQLVESGGGVVQPGRSLRLSCAASGFTFSSYAMHWVRQAPGKGLEWVAVISYDGSNKYYADSVKGRFTISRDNSKNTLYLQMNRLRSEDTAVYYCTTTTFDSWGQGTLITVSS
VL: DIVMTQTPLSLPVTPGEAASISCRSSQSLLDSEDGNTYLDWYLQKPGQSPQLLIYTLSHRASGVPDRFSGSGSGTDFTLKISRVAAEDVGLYYCLQRMGFPYTFGQGTKLDIK
notes: scFv-phage in the screening ELISA; whole IgG in the other assays
no binding (tested: 1 ug/ml): all assays above

B2: PD1-49A2 (antibody, V domains shown)
VH: QVQLVESGGGVVQPGRSLRLSCAASGFTFSSYAMHWVRQAPGKGLEWVAVISYDGSNKYYADSVKGRFTISRDNPKNTLYLQMNSLRAEDTAVYYCTTTTFDSWGRGTLVTVSS
VL: DIVMTQSPLSLPVTPGEPASISCRSSQSLFDSDDGNTYLDWYLQKPGQSPQLLIYTLSHRASGVPDRFSGSGSGTDFTLKISRVEAEDVGIYYCLQRMGFPYTFGQGTKVEIK
notes: scFv-phage in the screening ELISA; whole IgG in the other assays; also called Parent 49A2
no binding (tested: 1 ug/ml): all assays above

B3: PD1-45D6 (antibody, V domains shown)
VH: QVQLVESGGGVVQPGRSLRLSCAASGFTFSSYAMHWVRQVPGKGLEWVAVISYDGNDKYYADSVKGRFTISRDNSKNTLYLQMNSLRAEDTAVYYCVPTTFEYWGQGSQVTVSS
VL: DIVMTQTPLSLPVTPGEAASISCRSSQSLLDSDDGKTYLDWYLQKPGQSPQLLIYTLSYRASGVPDRFSGSGSGTEFNLRISRVEAEDVGIYYCMQRVEFPFTFGQGTKLDIK
notes: as for B1
no binding (tested: 1 ug/ml): all assays above
